Experimental data reported in patent US20110195900A1, “PEPTIDIC PTH RECEPTOR AGONISTS” (FERRING B.V., priority 2008, published 2011).
Read-outs that look alike come from different tables or passages of the source. Non-standard residues stand in square brackets, D forms with d. Residues, ends and D or L forms follow the SMILES beside them. No end group written: not given here. 1Nal = N[C@@H](Cc1cccc2ccccc12)C(=O)O; 2Nal = N[C@@H](Cc1ccc2ccccc2c1)C(=O)O; β3hI = CC[C@H](C)[C@H](N)CC(=O)O; β3hR = N=C(N)NCCC[C@H](N)CC(=O)O; β3hK = NCCCC[C@H](N)CC(=O)O; hSer = N[C@@H](CCO)C(=O)O; Nle = CCCC[C@H](N)C(=O)O; β3hA = C[C@H](N)CC(=O)O; Aib = CC(C)(N)C(=O)O; βAla = NCCC(=O)O

B1: [Nle^8, β-hAla^18, 2-Nal^23] hPTH (1-34)-NH2 (peptide)
peptide: SVSEIQL[Nle]HNLGKHLNS[β3hA]ERVE[2Nal]LRKKLQDVHNF-NH2
modifications: N-terminus assumed
SMILES: CCCC[C@H](NC(=O)[C@H](CC(C)C)NC(=O)[C@H](CCC(N)=O)NC(=O)[C@@H](NC(=O)[C@H](CCC(=O)O)NC(=O)[C@H](CO)NC(=O)[C@@H](NC(=O)[C@@H](N)CO)C(C)C)[C@@H](C)CC)C(=O)N[C@@H](Cc1c[nH]cn1)C(=O)N[C@@H](CC(N)=O)C(=O)N[C@@H](CC(C)C)C(=O)NCC(=O)N[C@@H](CCCCN)C(=O)N[C@@H](Cc1c[nH]cn1)C(=O)N[C@@H](CC(C)C)C(=O)N[C@@H](CC(N)=O)C(=O)N[C@@H](CO)C(=O)N[C@@H](C)CC(=O)N[C@@H](CCC(=O)O)C(=O)N[C@@H](CCCNC(=N)N)C(=O)N[C@H](C(=O)N[C@@H](CCC(=O)O)C(=O)N[C@@H](Cc1ccc2ccccc2c1)C(=O)N[C@@H](CC(C)C)C(=O)N[C@@H](CCCNC(=N)N)C(=O)N[C@@H](CCCCN)C(=O)N[C@@H](CCCCN)C(=O)N[C@@H](CC(C)C)C(=O)N[C@@H](CCC(N)=O)C(=O)N[C@@H](CC(=O)O)C(=O)N[C@H](C(=O)N[C@@H](Cc1c[nH]cn1)C(=O)N[C@@H](CC(N)=O)C(=O)N[C@@H](Cc1ccccc1)C(N)=O)C(C)C)C(C)C
B2: [Nle^8, β-hIle^18, 2-Nal^23] hPTH (1-34)-NH2 (peptide)
peptide: SVSEIQL[Nle]HNLGKHLNS[β3hI]ERVE[2Nal]LRKKLQDVHNF-NH2
modifications: N-terminus assumed
SMILES: CCCC[C@H](NC(=O)[C@H](CC(C)C)NC(=O)[C@H](CCC(N)=O)NC(=O)[C@@H](NC(=O)[C@H](CCC(=O)O)NC(=O)[C@H](CO)NC(=O)[C@@H](NC(=O)[C@@H](N)CO)C(C)C)[C@@H](C)CC)C(=O)N[C@@H](Cc1c[nH]cn1)C(=O)N[C@@H](CC(N)=O)C(=O)N[C@@H](CC(C)C)C(=O)NCC(=O)N[C@@H](CCCCN)C(=O)N[C@@H](Cc1c[nH]cn1)C(=O)N[C@@H](CC(C)C)C(=O)N[C@@H](CC(N)=O)C(=O)N[C@@H](CO)C(=O)N[C@H](CC(=O)N[C@@H](CCC(=O)O)C(=O)N[C@@H](CCCNC(=N)N)C(=O)N[C@H](C(=O)N[C@@H](CCC(=O)O)C(=O)N[C@@H](Cc1ccc2ccccc2c1)C(=O)N[C@@H](CC(C)C)C(=O)N[C@@H](CCCNC(=N)N)C(=O)N[C@@H](CCCCN)C(=O)N[C@@H](CCCCN)C(=O)N[C@@H](CC(C)C)C(=O)N[C@@H](CCC(N)=O)C(=O)N[C@@H](CC(=O)O)C(=O)N[C@H](C(=O)N[C@@H](Cc1c[nH]cn1)C(=O)N[C@@H](CC(N)=O)C(=O)N[C@@H](Cc1ccccc1)C(N)=O)C(C)C)C(C)C)[C@@H](C)CC
B3: [Nle^8, β-hArg^18, 2-Nal^23] hPTH (1-34)-NH2 (peptide)
peptide: SVSEIQL[Nle]HNLGKHLNS[β3hR]ERVE[2Nal]LRKKLQDVHNF-NH2
modifications: N-terminus assumed
SMILES: CCCC[C@H](NC(=O)[C@H](CC(C)C)NC(=O)[C@H](CCC(N)=O)NC(=O)[C@@H](NC(=O)[C@H](CCC(=O)O)NC(=O)[C@H](CO)NC(=O)[C@@H](NC(=O)[C@@H](N)CO)C(C)C)[C@@H](C)CC)C(=O)N[C@@H](Cc1c[nH]cn1)C(=O)N[C@@H](CC(N)=O)C(=O)N[C@@H](CC(C)C)C(=O)NCC(=O)N[C@@H](CCCCN)C(=O)N[C@@H](Cc1c[nH]cn1)C(=O)N[C@@H](CC(C)C)C(=O)N[C@@H](CC(N)=O)C(=O)N[C@@H](CO)C(=O)N[C@@H](CCCNC(=N)N)CC(=O)N[C@@H](CCC(=O)O)C(=O)N[C@@H](CCCNC(=N)N)C(=O)N[C@H](C(=O)N[C@@H](CCC(=O)O)C(=O)N[C@@H](Cc1ccc2ccccc2c1)C(=O)N[C@@H](CC(C)C)C(=O)N[C@@H](CCCNC(=N)N)C(=O)N[C@@H](CCCCN)C(=O)N[C@@H](CCCCN)C(=O)N[C@@H](CC(C)C)C(=O)N[C@@H](CCC(N)=O)C(=O)N[C@@H](CC(=O)O)C(=O)N[C@H](C(=O)N[C@@H](Cc1c[nH]cn1)C(=O)N[C@@H](CC(N)=O)C(=O)N[C@@H](Cc1ccccc1)C(N)=O)C(C)C)C(C)C
B4: [Aib^1, Nle^8,18, β-Ala^17, 1-Nal^23] hPTH (1-34)-NH2 (peptide)
peptide: [Aib]VSEIQL[Nle]HNLGKHLN[βAla][Nle]ERVE[1Nal]LRKKLQDVHNF-NH2
modifications: N-terminus assumed
SMILES: CCCC[C@H](NC(=O)CCNC(=O)[C@H](CC(N)=O)NC(=O)[C@H](CC(C)C)NC(=O)[C@H](Cc1c[nH]cn1)NC(=O)[C@H](CCCCN)NC(=O)CNC(=O)[C@H](CC(C)C)NC(=O)[C@H](CC(N)=O)NC(=O)[C@H](Cc1c[nH]cn1)NC(=O)[C@H](CCCC)NC(=O)[C@H](CC(C)C)NC(=O)[C@H](CCC(N)=O)NC(=O)[C@@H](NC(=O)[C@H](CCC(=O)O)NC(=O)[C@H](CO)NC(=O)[C@@H](NC(=O)C(C)(C)N)C(C)C)[C@@H](C)CC)C(=O)N[C@@H](CCC(=O)O)C(=O)N[C@@H](CCCNC(=N)N)C(=O)N[C@H](C(=O)N[C@@H](CCC(=O)O)C(=O)N[C@@H](Cc1cccc2ccccc12)C(=O)N[C@@H](CC(C)C)C(=O)N[C@@H](CCCNC(=N)N)C(=O)N[C@@H](CCCCN)C(=O)N[C@@H](CCCCN)C(=O)N[C@@H](CC(C)C)C(=O)N[C@@H](CCC(N)=O)C(=O)N[C@@H](CC(=O)O)C(=O)N[C@H](C(=O)N[C@@H](Cc1c[nH]cn1)C(=O)N[C@@H](CC(N)=O)C(=O)N[C@@H](Cc1ccccc1)C(N)=O)C(C)C)C(C)C

Legend:
human PTH-1 receptor = target: T1, human PTH-1 receptor (Homo sapiens, UniProt Q03431); test: Reporter gene assay (CRE-luciferase) for agonist activity in transiently transfected HEK-293 cells; assay type: cell-based; details: for hPTHR-2/hPTHR-1: selectivity for hPTH-1 receptor over hPTH-2 receptor
T1 construct: expressed in transfected cells; host or cells: HEK-293
T1 sequence (Q03431 27-593): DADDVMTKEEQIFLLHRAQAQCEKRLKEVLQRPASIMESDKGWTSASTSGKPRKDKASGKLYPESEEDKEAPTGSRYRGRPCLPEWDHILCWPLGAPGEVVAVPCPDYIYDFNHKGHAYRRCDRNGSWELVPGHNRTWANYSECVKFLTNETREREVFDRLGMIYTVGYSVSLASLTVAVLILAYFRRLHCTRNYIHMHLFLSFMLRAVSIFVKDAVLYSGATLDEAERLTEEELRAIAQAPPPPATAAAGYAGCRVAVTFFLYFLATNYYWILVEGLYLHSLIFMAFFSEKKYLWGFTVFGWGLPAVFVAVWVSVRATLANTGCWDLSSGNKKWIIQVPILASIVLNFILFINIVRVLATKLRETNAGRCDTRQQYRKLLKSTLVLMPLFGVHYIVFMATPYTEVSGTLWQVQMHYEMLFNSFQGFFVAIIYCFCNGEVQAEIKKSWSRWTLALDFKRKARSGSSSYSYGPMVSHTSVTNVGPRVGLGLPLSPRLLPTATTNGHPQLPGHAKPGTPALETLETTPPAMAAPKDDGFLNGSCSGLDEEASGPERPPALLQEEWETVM
Method in brief: (§1)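 HEK-293 cells transiently transfected with SV40-driven human PTH-1 receptor and CRE-luciferase reporter, exposed to serial compound dilutions for 4-5 h, then lysed for luciferase readout; efficacy and EC50 by non-linear regression, PTH (1-34) as internal control, n≥3. Selectivity measured in analogous human PTH-2 receptor luciferase reporter assays.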

human PTH-2 receptor = target: T2, human PTH-2 receptor (Homo sapiens, UniProt P49190); test: Luciferase-based transcriptional reporter gene assay for selectivity; assay type: cell-based
T2 construct: expressed in transfected cells
Method in brief: as §1

[1] = target: human parathyroid hormone receptor 1 (human, UniProt Q03431); test: cell-based or functional assay
[2] = target: human parathyroid hormone receptor 2 (human, UniProt P49190); test: cell-based or functional assay

T2 sequence (P49190 25-550): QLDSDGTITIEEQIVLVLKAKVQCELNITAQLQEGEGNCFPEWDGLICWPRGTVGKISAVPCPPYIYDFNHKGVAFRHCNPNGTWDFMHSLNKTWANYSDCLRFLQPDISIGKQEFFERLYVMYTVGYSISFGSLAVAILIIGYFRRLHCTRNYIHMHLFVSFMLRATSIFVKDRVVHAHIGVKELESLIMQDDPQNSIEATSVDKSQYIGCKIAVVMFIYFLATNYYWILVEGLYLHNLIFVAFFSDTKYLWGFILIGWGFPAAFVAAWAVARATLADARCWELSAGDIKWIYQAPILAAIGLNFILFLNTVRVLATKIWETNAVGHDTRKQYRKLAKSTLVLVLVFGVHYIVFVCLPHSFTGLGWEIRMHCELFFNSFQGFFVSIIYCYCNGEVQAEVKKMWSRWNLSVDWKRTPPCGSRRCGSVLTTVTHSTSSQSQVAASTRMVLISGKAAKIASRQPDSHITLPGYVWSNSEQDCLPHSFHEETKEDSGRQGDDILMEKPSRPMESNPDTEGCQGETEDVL

| Molecule | hPTHR-2/hPTHR-1 (human PTH-1 receptor; Table 3, ratio of EC50 values) | hPTHR-1 EC50 (nM), CRE-luciferase reporter gene assay [1] [nM] | hPTHR-2 EC50 (nM), luciferase reporter gene assay [2] [nM] | other results |
| --- | --- | --- | --- | --- |
| CCCC[C@H](NC(=O)[C@H](CC(C)C)NC(=O)[C@H](CCC(N)=O)NC(=O)[C@@H](NC(=O)[C@H](CCC(=O)O)NC(=O)[C@H](CO)NC(=O)[C@@H](NC(=O)C(C)(C)N)C(C)C)[C@@H](C)CC)C(=O)N[C@@H](Cc1c[nH]cn1)C(=O)N[C@@H](CC(N)=O)C(=O)N[C@@H](CC(C)C)C(=O)NCC(=O)N[C@@H](CCCCN)C(=O)N[C@@H](Cc1c[nH]cn1)C(=O)N[C@@H](CC(C)C)C(=O)N[C@@H](CC(N)=O)C(=O)N[C@@H](CO)C(=O)N[C@@H](CCOC)C(=O)N[C@@H](CCCCN)CC(=O)N[C@@H](CCCNC(=N)N)C(=O)N[C@H](C(=O)N[C@@H](CCC(=O)O)C(=O)N[C@@H](Cc1cccc2ccccc12)C(=O)N[C@@H](CC(C)C)C(=O)N[C@@H](CCCNC(=N)N)C(=O)N[C@@H](CCCCN)C(=O)N[C@@H](CC(C)C)C(=O)N[C@@H](CC(C)C)C(=O)N[C@@H](CCC(N)=O)C(=O)N[C@@H](CC(=O)O)C(=O)N[C@H](C(=O)N[C@@H](Cc1c[nH]cn1)C(=O)N[C@@H](CC(N)=O)C(=O)N[C@@H](Cc1ccccc1)C(N)=O)C(C)C)C(C)C [SEQ ID NO: 47, [Aib^1, Nle^8, hSer(OMe)^18, β-hLys^19,1-Nal^23, Leu^27] hPTH (1-$$4)-NH2] (H-[Aib]VSEIQL[Nle]HNLGKHLNS[hSer](Me)[β3hK]RVE[1Nal]LRKLLQDVHNF-NH2) | 51 | – | – | EC50 (human PTH-1 receptor; Table 3, HEK-293 cells, CRE-luciferase, 4-5 hours exposure, read-out: hPTHR-1 EC50): 0.05 nM; EC50 (human PTH-2 receptor; Table 3, luciferase reporter gene assay, read-out: hPTHR-2 EC50): 3 nM |
| CCCC[C@H](NC(=O)[C@H](CC(C)C)NC(=O)[C@H](CCC(N)=O)NC(=O)[C@@H](NC(=O)[C@H](CCC(=O)O)NC(=O)[C@H](CO)NC(=O)[C@@H](NC(=O)[C@@H](N)CO)C(C)C)[C@@H](C)CC)C(=O)N[C@@H](Cc1c[nH]cn1)C(=O)N[C@@H](CC(N)=O)C(=O)N[C@@H](CC(C)C)C(=O)NCC(=O)N[C@@H](CCCCN)C(=O)N[C@@H](Cc1c[nH]cn1)C(=O)N[C@@H](CC(C)C)C(=O)N[C@@H](CC(N)=O)C(=O)N[C@@H](CO)C(=O)N[C@H](CC(=O)N[C@@H](CCC(=O)O)C(=O)N[C@@H](CCCNC(=N)N)C(=O)N[C@H](C(=O)N[C@@H](CCC(=O)O)C(=O)N[C@@H](Cc1cccc2ccccc12)C(=O)N[C@@H](CC(C)C)C(=O)N[C@@H](CCCNC(=N)N)C(=O)N[C@@H](CCCCN)C(=O)N[C@@H](CC(C)C)C(=O)N[C@@H](CC(C)C)C(=O)N[C@@H](CCC(N)=O)C(=O)N[C@@H](CC(=O)O)C(=O)N[C@H](C(=O)N[C@@H](Cc1c[nH]cn1)C(=O)N[C@@H](CC(N)=O)C(=O)N[C@@H](Cc1ccccc1)C(N)=O)C(C)C)C(C)C)[C@@H](C)CC [SEQ ID NO: 19, [Nle^8, β-hIle^18,1-Nal^23, Leu^27] hPTH (1-34)-NH2] (H-SVSEIQL[Nle]HNLGKHLNS[β3hI]ERVE[1Nal]LRKLLQDVHNF-NH2) | 224 | – | – | EC50 (human PTH-1 receptor): 0.14 nM; Selectivity hPTHR-2/hPTHR-1 (human PTH-1 receptor; Table 4 comparison data, ratio of EC50 values): 224; EC50 (human PTH-2 receptor): 32 nM |
| B1 | – | 0.34 | 73 | – |
| B2 | – | 0.25 | 42 | – |
| B3 | – | 0.24 | 36 | – |
| B4 | – | 0.22 | 46 | – |
